Experiment: yeast display, Sf9 membrane polyspecificity reagent, FACS + sequencing; frameworks hold sequencing errors
How it was run: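 Galactose-induced (36–48 hours) yeast carrying a synthetic nanobody display library were exposed to 10% biotinylated, detergent-solubilized Sf9 membrane reagent at 4 °C for 1 hour. FACS followed streptavidin microbead enrichment, using low and high (top ~1%) gates for expression (anti-HA) and reagent binding (streptavidin). Colony PCR, MiSeq 2 × 250 sequencing and CDR-length filtering followed. Labels for polyreactivity reflect the gate of origin.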

Sequence	polyreactivity (PSR sort gate)
QVQLVESGGGLVQAGGSLRLSCAASGFIFLVYAMGWYRQAPGKERELVAAISASGGRTYYADSVKGRFTISRDNAKNTVYLQMNSLKPEYTAVYYCARLLPTPGKPILDYWGQGTQVTVSS	low polyreactivity
QVQLVESGGGLVQAGGSLRLSCAASGSTFSTNAMGWYRQAPGKERELVAAISYSGGSTYYADSVKGRFTISRDNAKNTVYLQMISLKPEDTAVYYCAADGYYYNSGGRYYEFYYWGQGTQVTVSS	low polyreactivity
QVQLVESGRGLVQAGGSLSLSCAASGRIFYYYVMGWYRQAPGKERELVAVIDWSGGSTYYADSVKGRFTISRVNAKNTVYLQMNSLKPEDTAVYYCAKVGLNFSLAYEDYDYWGQGTQVTVSS	low polyreactivity
QVQLVESGGGLVQAGGSLRLSCAASGITFYKYVMGWYRQAPGKERELVARISKGGGSTYYADSVKGRFTISRDYAKNTVYLQMNSLKPEDTAVYYCNARGGYYVRSSAEYDYWGQGTQVTVSS	high polyreactivity
QVQLQGSGGGLVQAGGSLRLSCAASAYIFQNHPMGCNRQAPGKERELVAGIDNGTSTNYADSVNGRFTISRDNAKNTVYLQMNSLKPEDTAVYYCAAAGQADDTLGYWGQGTQVTVSS	low polyreactivity
QVQLVESGGGLVQAGGSLRLSCAASGSTFSFNAMGWYRQAPGKERELVAAISRSGGRTYYADSVKGRFTISRDNAKNTVYLQMNSLKPEDTAVYYCNKVWFQRSVQPVEYDYWGQGTQVTVSS	high polyreactivity
QVQLVESGGGLVQAGGSLRLSCAASGFIFGYNAMGWYRQAPGKERELVAAITASGGSTYYADSVKGRFTISRDNAKNTVYLQMNSLKPEDTAVYYCATVLRKNGERVNRLYYWGQGTQVTVSS	high polyreactivity
QVQLEESGGGLVQAGGSLRLSCAASGRIFWWYGMGWYREAPGKERELVASITYSGVSTYYADSVKGRFTISRDNAKNTVYLQMNSLTPEDTAVYYCAADRSRYFSYKYDYWGQGTQVTVSS	high polyreactivity
QVQLVESGGGLVQAGGSLRLSCAASGRTINRYAMGWYRQAPGKERELVAAISTSGGTTYYADSVKGRFTISRDNAKNTVYLQMNSLKPEDSAVYYCAAVARRGSYLGQRLDYWGQGTQVTVSS	high polyreactivity
QVQLVESGGGLVQAGGSLRLSCAASGFTFNQYAMGWYRQAPGKERELVAAITGSGGSTYYADSVKGRFTISRDNAKNTVYLQMNSLKPEDTAVYYCNRDRFSRFYWGQGTQVTVSS	high polyreactivity
QVQLVESGGGLVQAGGSLRLSCAASGFIFPRYAMGWYRQAPGKERELVAAISYSGGSTYYADSVKGRFTISRDNAKNTVYLQMNSLKPEDTAVYYCAARLFKDSWMDYWGQGTQVTVSS	high polyreactivity
QVQLVESGGGLVQAGGSLRLSCAASGITFRYYAMGWYRQAPGKERELVAAISRSGGRTYYADSVKGRFTISRDNAKNTVYLQMNSLKPEDTAVYYCAVAVRRGRAYDYWGQGTQVTVSS	high polyreactivity
QVQLQESGGGLVQAGGSMRLSCAASGSISELRPMGWYRQAPGKERELVAGISTGGSTNYADSVKGRFTISRDNAKNTVYLQMNSLKPEDTAVYYCAAALSNVRNVRSPYDYWGQGTQVTVSS	high polyreactivity
QVQLVESGGGLVQAGGSLRLSCAASGFTLKWYAMGWYRQAPGKERELVAAINDRGGNTYYADSVKGRFTISRDNAKNTVYLQMNSLKPEDTAVYYCAVRGKTYRPYYYWGQGTQVTVSS	high polyreactivity
QVQLVESGGGLVQAGGSLRLSCAASGSTFFTNVMGWYRQAPGKERELVAVIRWRGSDTYYADSVKGRFTISRDNAKNTVYLQMNSLKPEDTAVYYCNAIESFYPTTGEQGYSYDYWGQGTQVTVSS	low polyreactivity
QVQLVESGGGLVQAGGSLRLSCAASGRTFTWYAMGWYRQAPGKERELVAVISRGGSTNYADSVKGRFTISRDNAKNTVYLQMKSLKPEDTAVYYCAARGLYRARLKLDYWGQGTQVTVSS	high polyreactivity
QVQLVDSGGGLVQAGGSLRLSCAASGRIFQPNAMGWYRQAPGKEMEFVAAISSSGGSTFYADSVKGRFTISRDNAKNTVYLQMNSLKPEDTAVYYCAKRYGYTEYYYWGQGTQVTVSS	high polyreactivity
QVQLVESGGGLVQAGGSLRLSCAASGLIFKYNAMGWYRQAPGKERELVADINRSGGSTYYADSVKGRFTISRDNAKNTVYLQMNSLKPEDTAVYYCAAERVSLYWVIFGYWGQGTQVTVSS	low polyreactivity
QVQLVESGGRLVQAGGSLRLSCAASGYIFDWNAMGWYRQAPGKERELVAAISSGGRTNYADSVKGRFTISRDNAKITVYLQMNSLKPEDTAVYYCAAVYTDPYVEYDYWGQGTQVTVSS	low polyreactivity
QVQLVESRGGLVQAGGSIRLSCAASGITFGSYAMGWYRQAPGKERELVAAIDTSGDDTYYADSVKGRFTISRDNAKNTVYLQMNSLNPEDTAVYYCNAVSTASDEYDYWGQGTQVTVSS	low polyreactivity
QVQLVESGGGLVQAGGSLRLSCAASGFILNQYAMGWYRQAPGKERELVAAISNGGSTNYADSVKGRFTISRDNAKNTVYLQMNSLKPEDTAVYYCAKDQSLTYSSVWGYDYWGQGTQVTVSS	low polyreactivity
QVQLVESGGVLLQAGGSLRLTCAASGSIFQYNALVGYRQAPGKVREFVAAITRGDSTYYADSVKGRFTISRDNAKNTVYLQMNSLKADDTAVYYCAKRGWFYGGRDYWGQGTQVTVSS	high polyreactivity

Sequence	polyreactivity (PSR sort gate)
QVQVVESGGGLFQAGGSLRLSSAASGSIFARNALGWYRQAPGKERDLVAGITRSTGDTYYADSVKGRFTISRDNAKYTVSFQMNSLKQEDTAVYYCARDGRRTPYKYEYWGQGTQVTVSS	low polyreactivity
QVQLVESGGGLVQAGGSLRLSCAASGRTFYIYAMGWYRQAPGKERELVATIDSTGSTNYADSVKGRFTISRDNAKNTVYLQMNSLKPEDTAVYYCNADDWVGRSLRYDYWGQGTQVTVSS	low polyreactivity
QVQLVESGGGLVQAGGSLRLSCAASGSTFYSYAMGWYRQAPGKERELVAAITKGGGSTYYADSVKGRFTISRDNAKNTVYLQMNSLIPEDTAVYYCAAPGLYWYYTRSVYDYWGQGTQVTVSS	high polyreactivity
QVQLVESGGGLVQAGGSLRLSCAASGLTFGTNAMGWSRQAPGKERELVAAISTSSGSTYYSDSVKGRFTISRDNAKNTDYLQMNSLKPEDTAVYYSAAVTVTNLSYYRYYYWGQGTQVTVSS	low polyreactivity
QVQHVESGGGLVQAGGSLRLSCAASGRIFGTYAMGWYRPAPGKERELVAAISWRGGSTYYADSVKGRFTISRDNAKNTVYLQMNSLKPEDTAVYYCAATWWSPSRGTKGDYWGQGTQVTVSS	low polyreactivity
QVQLVESGGGLVQAGGSLRLSCAASGSIFVLNAMGLYRQAPGKERELVAGISSSGGSTYYADSVKGRFTISRDNAKNTVYLQMNSLKPEDTAVYYFAKDAGLYEGDYWGQGTQVTVSS	low polyreactivity
QVQLVESGGGLVQAGGSLRLSCAASGSTFYNNAMGWYRQAPGKEREFVAAIRYRGGSTYYADSVKGRFTISRDNAKNTVYLQMNSLKPEDTAVYYCAADQGVYRTYWVDYWGQGTQVTVSS	high polyreactivity
QVQLVESGGGLVQAGGSLRLSCAASGRTFFGYAMGWYRQAPGKERELVATISGSGASTYYADSVKGRFTISRDNAKNTVYLQMNSLKPEDTAVYYCAVRLYFYQRNYYSWGQGTQVTVSS	high polyreactivity
QVQLQESRGGLVQAGGSLCLSFAASGTIFFDGDMGGYRQAPGKEREFVAAINPGGSGYYADSVKGRLPLAAITHTVYLQMNSLKPEDTAVYYCAAKLFDVYGYYYWGQGTQVTLSS	low polyreactivity
QVQLVESGGGLVQAGRSLRLICAASGFTFYSYAMGWYRQAPGKERELVANITIGGSTYADSVKGRFTISRDNAKNTVYLQMNSLKPEDTAVYYCARGYRVVGDPLYGDYDYWGQGTQVTVSS	low polyreactivity
QVQLVESGGGLVQAGGSLRLSCAASGRTFYYYAMGWSRPAPGKERELVAGINSGGSTNYADSVKGRFTISRDNAKNTVYLQMNRLKPEDTAVYYCAVEDLGSEGWGWYKEMDYWGQGTQVTVSS	low polyreactivity
QVQLVESGGGLVQAGGSLRLSCAASGGILDTYALGWYRQAPGKERELVAAITSGGNTNYADSVKGRFTISRDNAKNTVYLQMNSLKPEDTAVYYCAALYTVSYLTSPVSYRYDYWGQGSQVTVSS	low polyreactivity
QVQLGESGGGIVQAGGSLRLSCAASGRTLQQYVMGWYRQAPGKETELVAAITRGGRTNYADSVKGRFTISRDNAKNTVYLQRNSLKPEDTAVYYCNSRYPSRLVAWLDYWGQGTQVTVSS	low polyreactivity
QVQLVESGGGLVQAGGSLRLSCAASGLTFYGNAMGWYRQAPGKERELVADISLSGGRTFYADSVKGRFTISRDNAKNTVYLQMNSLKPEDTAVYYCAAVWRTGWYYEYYHWGQGTQVTVSS	low polyreactivity
QVQLVESAGCLVQAGASLRLSCAASGGTFRLYAMGWSRQAPGKERELVAAITGSSGGTYYADSVKGRFTISRDNAKNTVYLQMNSLKPEDTAVYYCAASSSYWGQGTQVTVSS	low polyreactivity
QVQLVESGGGLVHAGGSLRLSCAASGYTFDSYTMGWYRQAPGKERELVAAISGRGGSTYYADSVKGRFTISRDNAKNTVYIQMNSLKPEDTAVYYCNTYPPIGYDYWGQGTQVTVSS	low polyreactivity
QVQLVESGGGLVQAGGSLRLSCASSGLILAPNDMGWYRQAPGKERELVAAITFRGVRTYYADSVKGRFTISRDNAKNNVYLQLNSLKPEDTAVYYCAAAVSKHYPYNYWGQGTQVSVSS	high polyreactivity
QVQLVESGGGLVLAGGSLRLSCAASGFIFDIYAMGCYRQAPGKERELVASITWDDGSTYYADSVKGRFTISRDNAKNTVYLQMNSLNPEDTAVYYCAADFEAGGYSLDYWGHGTQVTVSS	low polyreactivity
QVQLVESGGGLVQAGGSLRLSCAASGNNFWWNDMGWYRHAPGKERELVAAISWRGSSTYYADSVKGRFTISRDNAKYTVYLQMNSLKPEDSAVYYCAKPDRTCWLDGDYWGQGTQVTVSS	low polyreactivity
QVQLVESGGGVVQAGGSLRISCAASRLIFRRNAMGWYGQAPGKERELVAAISRTGGSTYDADSVKGRFTISRDNAKNPVYLQRNSLIPEDTAVYYCATDTRDYDYTDEYWGHGTQVTVSS	low polyreactivity
QVQLVESGGGLLQAGGSHRLSCAASGRIFPAYAMGWYRQAPGKERELVASNRRGGITYADSVKGRFTISRDNAKNTVYLQMNSLKPEDTAVYYCNADYRGWGYHMDYWGQGTQVTVSS	low polyreactivity

Reference: the nanobody polyreactivity screen of Harvey et al. (2022)
